In the supplement of paper PMC10126150:
± gives the standard deviation of the averaged measurements.

Test system: ATP
Experiment: switch fluorescence ratio, 500 uM ATP over buffer (Cy3 cluster intensity, sum of 5 cycles each) (fold (ratio)); higher = stronger signal-on switching upon ATP binding; sequences stand for … in TCGTCGGCAGCGTCAGATGTGTATAAGAGACAGTTTTTTTTTTTTTTTTTTTTTTTTT…TC
Conditions: aptamer strand: ATP DNA aptamer (quencher-CACCTGGGGGAGTATTGCGGAGGAAGG + anchor), 100 nM annealed; ATP concentration: 500 uM
Method in brief: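 Clusters with intensities outside 100-1000 RFU were excluded. The remaining Cy3-labelled switching-strand clusters on a modified Illumina MiSeq flow-cell had been annealed to 100 nM quencher-labelled ATP aptamer and imaged in selection buffer, then after 15 min with 500 uM ATP at 22 °C, for five cycles separated by NaOH stripping and re-annealing. The fluorescence ratio, averaged per switch-domain sequence, is each cluster's summed target-cycle Cy3 intensity over its summed buffer-cycle Cy3 intensity.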
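Also: ATP exposure 15 min at 22 °C before imaging.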

Row | Sequence | switch fluorescence ratio
1 | CCTTTTGTGG | 1.015 ± 0.0068
2 | CGAAAAGGTG | 1.05 ± 0.054
3 | CGAAAATAAT | 0.9817 ± 0.0022
4 | CGAAAATATC | 0.989 ± 0.023
5 | CGAAAATGTA | 0.9772 ± 0.0089
6 | CGAAAGAAAT | 1.02 ± 0.031
7 | CGAAAGCAGG | 1.1681 ± 0.00099
8 | CGAAAGGTTG | 0.939 ± 0.017
9 | CGAAATGGCA | 1.03 ± 0.045
10 | CGAAATTACG | 1.04 ± 0.021
11 | CGAAGAAAGG | 1.16 ± 0.013
12 | CGAAGAGGCG | 0.997 ± 0.052
13 | CGAAGAGGTC | 1.02 ± 0.032
14 | CGAAGATCGA | 0.982 ± 0.042
15 | CGAAGCAGCG | 1.4 ± 0.044
16 | CGAAGCTTAT | 2.74 ± 0.53
17 | CGAAGGCTGT | 1.003 ± 0.0095
18 | CGAAGGGGTG | 0.9749 ± 0.0032
19 | CGAAGTTGAC | 1.63 ± 0.13
20 | CGAAGTTTCG | 1.02 ± 0.017
21 | CGAAGTTTTT | 0.998 ± 0.004
22 | CGAATAAGAA | 0.9383 ± 0.0074
23 | CGAATATAGC | 1.02 ± 0.015
24 | CGAATCCAGG | 2.46 ± 0.062
25 | CGAATCCATT | 0.9869 ± 0.0033
26 | CGAATCCCCA | 1.07 ± 0.032

Row | Sequence | switch fluorescence ratio
27 | CGAATCGGTA | 0.969 ± 0.00014
28 | CGAATCGGTG | 1.01 ± 0.019
29 | CGAATGGGAC | 1.042 ± 0.007
30 | CGAATGGGTT | 0.965 ± 0.011
31 | CGAATGTTGG | 0.99 ± 0.041
32 | CGAATTAGGT | 1.03 ± 0.019
33 | CGACAAGCTT | 1.03 ± 0.016
34 | CGACAATCAT | 1.039 ± 0.0036
35 | CGACAGCGGC | 2.11 ± 0.094
36 | CGACATATCC | 1.12 ± 0.027
37 | CGACATGGTC | 1.02 ± 0.015
38 | CGACCACGTA | 1.12 ± 0.029
39 | CGACGAGTAA | 1.32 ± 0.36
40 | CGACGATCGT | 0.971 ± 0.028
41 | CGACGATGAC | 5.46 ± 0.077
42 | CGACGATTTG | 1.01 ± 0.026
43 | CGACGCGGTA | 3.14 ± 0.059
44 | CGACGCTTGT | 3.15 ± 0.38
45 | CGACGGGGCT | 1.13 ± 0.049
46 | CGACGGGTTT | 1.08 ± 0.035
47 | CGACGTTCGC | 1.48 ± 0.037
48 | CGACTACTTT | 1.05 ± 0.031
49 | CGACTAGGAA | 1.04 ± 0.023
50 | CGACTAGGGG | 1.01 ± 0.024
51 | CGACTGGGGG | 0.957 ± 0.026
52 | CGACTTGGAA | 1.02 ± 0.036

Row | Sequence | switch fluorescence ratio
53 | CGAGACTAGT | 1.01 ± 0.063
54 | CGAGACTTAT | 0.996 ± 0.013
55 | CGAGATTTGT | 1.011 ± 0.0097
56 | CGAGCAGTGG | 1.1 ± 0.034
57 | CGAGCCAGAT | 1.04 ± 0.028
58 | CGAGCGGAAG | 1.03 ± 0.032
59 | CGAGCTTGAG | 0.99 ± 0.002
60 | CGAGGAAGGG | 1.01 ± 0.021
61 | CGAGGACGGG | 1 ± 0.029
62 | CGAGGATAAC | 1.03 ± 0.043
63 | CGAGGATGT | 1.01 ± 0.011
64 | CGAGGCACAG | 1.53 ± 0.052
65 | CGAGGCTAGG | 1.07 ± 0.021
66 | CGAGGGAACG | 1 ± 0.04
67 | CGAGGGACTG | 0.984 ± 0.0099
68 | CGAGGGATGG | 0.977 ± 0.05
69 | CGAGGGGAGG | 1.05 ± 0.028
70 | CGAGGGGGA | 1.0066 ± 0.00091
71 | CGAGGGGGTG | 1.02 ± 0.055
72 | CGAGGGTTGG | 1.02 ± 0.018
73 | CGAGTAAAAT | 1.08 ± 0.1
74 | CGAGTAGGGA | 0.995 ± 0.021
75 | CGAGTAGTAG | 1.03 ± 0.059
76 | CGAGTCCATC | 0.955 ± 0.012
77 | CGAGTCCCAC | 1 ± 0.12
78 | CGAGTCCGTT | 0.99 ± 0.018

Row | Sequence | switch fluorescence ratio
79 | CGAGTGGATG | 0.994 ± 0.018
80 | CGAGTTGGTA | 1.01 ± 0.025
81 | CGAGTTTGAC | 0.977 ± 0.019
82 | CGATACGTGG | 1.02 ± 0.042
83 | CGATAGGGGC | 1.08 ± 0.14
84 | CGATAGTTGT | 1.27 ± 0.38
85 | CGATATATGA | 1.02 ± 0.019
86 | CGATATGTAG | 1.016 ± 0.0045
87 | CGATATTGAT | 1.03 ± 0.035
88 | CGATCCCGGG | 1.07 ± 0.11
89 | CGATCCGTCC | 1.09 ± 0.032
90 | CGATCGATAT | 0.998 ± 0.032
91 | CGATCGGATT | 1.01 ± 0.017
92 | CGATCGGTAC | 3.3 ± 0.38
93 | CGATCGTAAT | 2.1 ± 0.036
94 | CGATCTTGTT | 0.982 ± 0.018
95 | CGATGAAAGG | 0.966 ± 0.023
96 | CGATGCTAGT | 1.07 ± 0.037
97 | CGATGGAGGA | 0.98967 ± 0.00091
98 | CGATGGCCCT | 1.03 ± 0.011
99 | CGATGGGGGG | 0.982 ± 0.06
100 | CGATGGTAAG | 0.972 ± 0.011
101 | CGATGGTCTG | 0.9872 ± 0.0018
102 | CGATGTCGAA | 1.01 ± 0.011
103 | CGATGTCGCG | 0.989 ± 0.028
104 | CGATGTTATG | 1.02 ± 0.022

Row | Sequence | switch fluorescence ratio
105 | CGATTAAAAT | 0.986 ± 0.021
106 | CGATTAAATG | 0.993 ± 0.013
107 | CGATTAAGGT | 1.02 ± 0.043
108 | CGATTATGGT | 1.003 ± 0.0094
109 | CGATTATTTG | 0.9786 ± 0.0053
110 | CGATTCAAGG | 1.03 ± 0.017
111 | CGATTCGGTG | 0.9698 ± 0.0031
112 | CGATTCTGCT | 0.996 ± 0.036
113 | CGATTGATGT | 1.02 ± 0.016
114 | CGATTGGTAC | 1.25 ± 0.023
115 | CGATTTGCTT | 0.969 ± 0.058
116 | CGATTTTGTA | 1.01 ± 0.051
117 | CGATTTTGTT | 0.989 ± 0.034
118 | CGCACTTGGG | 0.99283 ± 0.0007
119 | CGCAGCTATT | 3.56 ± 2.1
120 | CGCAGGCTTG | 1.04 ± 0.043
121 | CGCAGGGGGA | 1.033 ± 0.008
122 | CGCAGGGGGC | 1.14 ± 0.059
123 | CGCATAGGCT | 1.11 ± 0.18
124 | CGCATGATGT | 1.03 ± 0.018
125 | CGCATGGGGT | 1.0574 ± 1.7e-05
126 | CGCATTCGTG | 1.08 ± 0.029
127 | CGCATTCTAA | 1.31 ± 0.019
128 | CGCATTCTGC | 1.17 ± 0.091
129 | CGCCCGTAGG | 1.05 ± 0.011
130 | CGCCTCATGA | 1.04 ± 0.029

Row | Sequence | switch fluorescence ratio
131 | CGCCTTGGGG | 1 ± 0.05
132 | CGCCTTGTTC | 1.01 ± 0.012
133 | CGCGAAAGCC | 1.002 ± 0.01
134 | CGCGAAGAAC | 1.039 ± 0.0088
135 | CGCGAGGGGC | 1.07 ± 0.012
136 | CGCGATCGCG | 0.994 ± 0.055
137 | CGCGCCCCTT | 1.13 ± 0.015
138 | CGCGCGATTA | 1.02 ± 0.036
139 | CGCGGATTCT | 1.04 ± 0.021
140 | CGCGGCTATT | 1.07 ± 0.034
141 | CGCGGCTGGG | 1 ± 0.026
142 | CGCGGCTTGG | 1.01 ± 0.018
143 | CGCGGGGCAC | 1.062 ± 0.0025
144 | CGCGGGGTAC | 1.66 ± 0.26
145 | CGCGGTAGTC | 1.1 ± 0.046
146 | CGCGGTTTGT | 0.988 ± 0.017
147 | CGCGTCAGCC | 0.979 ± 0.073
148 | CGCGTCGCTG | 0.9811 ± 0.0012
149 | CGCGTGTCTG | 1.022 ± 0.0039
150 | CGCGTTGTGC | 1.11 ± 0.021
151 | CGCGTTTTTT | 1.07 ± 0.12
152 | CGCTAATCAG | 1.05 ± 0.043
153 | CGCTAATGCG | 1.04 ± 0.059
